Experiment [1] deals with LHRH binding sites on EFO-27 human ovarian cancer cells (human). The experiment in a line: competition with [125I-Tyr8]BRU-2477 on EFO-27 cells.
In experiment [2] the target is LHRH receptor (LHRH binding sites) on EFO-27 human ovarian cancer cells (human). The experiment in a line: competition with [125I-Tyr8]BRU-2477, EFO-27 cells.

Non-standard residues stand in square brackets, D forms with d. Primed or numbered codes have the meaning given here. azaGly′ = aza-glycine residue at the C-terminus, with NH2; Bpa = N[C@@H](Cc1ccc(C(=O)c2ccccc2)cc1)C(=O)O; d2Nal = N[C@H](Cc1ccc2ccccc2c1)C(=O)O; DO3A10CM = not defined here; Bpa4 = non-natural residue; Damfe4 = not defined here; Ahgly = not defined here; Ampa4 = not defined here; Ampc4 = not defined here; Ampg4 = not defined here; Gufe4 = not defined here; Hypt4 = not defined here; Mogly = not defined here; Ppt4 = not defined here; azaGly = NNC(=O)O

B1: BRU-3057 (peptide)
peptide: XRWSHXWXPX
modifications: DO3A10CM on N-terminus; AA1 Qua3; AA6 Darg; AA8 Bpa4; AA10 azaGly-NH2
As a reminder, the EC50 is the concentration giving half of the maximal effect. Read a low EC50 as higher potency in that assay. As to B1, the EC50 in experiment [1] and in experiment [2] was 380 nM throughout.

B2: BRU-3107 (peptide)
peptide: XRXSHXWXPX
modifications: DO3A10CM on N-terminus; AA1 Dnal2; AA3 Amfe4; AA6 Darg; AA8 Bpa4; AA10 azaGly-NH2
Take B2: the EC50 in experiment [1] and in experiment [2] was 380 nM in each case.

B3: BRU-3104 (peptide)
peptide: XRXSHXWXPX
modifications: DO3A10CM on N-terminus; AA1 Dnal2; AA3 Nal1; AA6 Darg; AA8 Bpa4; AA10 azaGly-NH2
With B3, the EC50 in experiment [1] and in experiment [2] was 250 nM throughout.

B4: BRU-3105 (peptide)
peptide: XRXSHXWXPX
modifications: DO3A10CM on N-terminus; AA1 Dnal2; AA3 Nal2; AA6 Darg; AA8 Bpa4; AA10 azaGly-NH2
Turning to B4, the EC50 in experiment [1] and in experiment [2] was 220 nM in each case.

B5: BRU-3069 (peptide)
peptide: XRWSHXWXPX
modifications: DO3A10CM on N-terminus; AA1 Thy; AA6 Darg; AA8 Bpa4; AA10 azaGly-NH2
In the case of B5, the EC50 in experiment [1] and in experiment [2] was 380 nM each time.

B6: BRU-3021 (peptide)
peptide: XRWSHXWXP
modifications: DO3A10CM on N-terminus; AA1 Dnal2; AA6 Darg; AA8 Bpa4; AA10 Az23m2po-NH2
For B6, the EC50 in experiment [1] and in experiment [2] was 500 nM in each case.

B7: BRU-2969 (peptide)
peptide: DO3A10CM-[d2Nal]RWSH[dR]W[Bpa4]PGR-NH2
modifications: reading uncertain
In the case of B7, the EC50 in experiment [1] and in experiment [2] was 240 nM each time.

B8: BRU-3058 (peptide)
peptide: DO3A10CM-[d2Nal][Gufe4]WSH[dR]W[Bpa]P[azaGly′]-NH2
modifications: reading uncertain
For B8, the EC50 in experiment [1] and in experiment [2] was 260 nM in each case.

B9: BRU-2971 (peptide)
peptide: DO3A10CM-[d2Nal]RWSH[dR]W[Bpa]PGQ-NH2
modifications: reading uncertain
Consider B9, for which the EC50 in experiment [1] and in experiment [2] was 490 nM in each case.

B10: BRU-2959 (peptide)
peptide: XRWSRXWXPX
modifications: DO3A10CM on N-terminus; AA1 Dnal2; AA6 Darg; AA8 Bpa4; AA10 azaGly-NH2
Turning to B10, the EC50 in experiment [1] and in experiment [2] was 250 nM each time.

B11: BRU-3055 (peptide)
peptide: XRWSHXWXPX
modifications: DO3A10CM on N-terminus; AA1 Atdc2; AA6 Darg; AA8 Bpa4; AA10 azaGly-NH2
In the case of B11, the EC50 in experiment [1] and in experiment [2] was 390 nM throughout.

B12: BRU-2985 (peptide)
peptide: XRWSHXWXP
modifications: not fully specified; DO3A10CM on N-terminus; AA1 Dnal2; AA6 Darg; AA8 Bpa4; AA10 A1guao3pt
Consider B12, for which the EC50 in experiment [1] and in experiment [2] was 460 nM each time.

B13: BRU-3071 (peptide)
peptide: XRWSHXWXPX
modifications: DO3A10CM on N-terminus; AA1 Dbpa4; AA6 Darg; AA8 Bpa4; AA10 azaGly-NH2
For the molecule B13, the EC50 in experiment [1] and in experiment [2] was 310 nM throughout.

B14: BRU-2961 (peptide)
peptide: XRWSXXWXPX
modifications: DO3A10CM on N-terminus; AA1 Dnal2; AA5 Orn; AA6 Darg; AA8 Bpa4; AA10 azaGly-NH2
As for B14, the EC50 in experiment [1] and in experiment [2] was 350 nM in each case.

B15: BRU-2876 (peptide)
peptide: DO3A10CM-G[Ahgly]HWSH[dR]W[Bpa]P[azaGly]-NH2
modifications: not fully specified; reading uncertain
Take B15: the EC50 in experiment [1] and in experiment [2] was 500 nM in each case.

B16: BRU-3070 (peptide)
peptide: XRWSHXWXPX
modifications: DO3A10CM on N-terminus; AA1 Bip; AA6 Darg; AA8 Bpa4; AA10 azaGly-NH2
On to B16, for which the EC50 in experiment [1] and in experiment [2] was 280 nM throughout.

B17: BRU-2955 (peptide)
peptide: XRWXHXWXPX
modifications: DO3A10CM on N-terminus; AA1 Dnal2; AA4 Dpr (Dap in Table 26); AA6 Darg; AA8 Bpa4; AA10 azaGly-NH2
With B17, the EC50 in experiment [1] and in experiment [2] was 410 nM throughout.

B18: BRU-3049 (peptide)
peptide: XXWSHXWXPX
modifications: DO3A10CM on N-terminus; AA1 Dnal2; AA2 Darg; AA6 Darg; AA8 Bpa4; AA10 azaGly-NH2
For the molecule B18, the EC50 in experiment [1] and in experiment [2] was 360 nM each time.

B19: BRU-3068 (peptide)
peptide: GXRWSHXWXPX
modifications: DO3A10CM-Gly (linker) on N-terminus; AA1 Dtpi; AA6 Darg; AA8 Bpa4; AA10 azaGly-NH2
Take B19: the EC50 in experiment [1] and in experiment [2] was 240 nM throughout.

B20: BRU-3060 (peptide)
peptide: DO3A10CM-[d2Nal][Ampg4]WSH[dR]W[Bpa]P[azaGly′]-NH2
modifications: not fully specified; printed as DO3A10CM-Dnal2-Ampg4-Trp-Ser-His-Darg-Trp-Bpa4-Pro-azaGly-NH2; reading uncertain
As to B20, the EC50 in experiment [1] and in experiment [2] was 340 nM each time.

B21: BRU-3062 (peptide)
peptide: DO3A10CM-[d2Nal]RWSH[dR]W[Bpa][Ampc4][azaGly′]-NH2
modifications: reading uncertain
For B21, the EC50 in experiment [1] and in experiment [2] was 320 nM throughout.

B22: BRU-3059 (peptide)
peptide: DO3A10CM-[d2Nal][Ampa4]WSH[dR]W[Bpa]P[azaGly′]-NH2
modifications: not fully specified; printed as DO3A10CM-Dnal2-Ampa4-Trp-Ser-His-Darg-Trp-Bpa4-Pro-azaGly-NH2; reading uncertain
In the case of B22, the EC50 in experiment [1] and in experiment [2] was 410 nM throughout.

B23: BRU-3006 (peptide)
peptide: XRWSHXWXP
modifications: DO3A10CM on N-terminus; AA1 Dnal2; AA6 Darg; AA8 Bpa4; AA10 Ap (aminophenyl)
As to B23, the EC50 in experiment [1] and in experiment [2] was 420 nM throughout.

B24: BRU-3056 (peptide)
peptide: XRWSHXWXPX
modifications: DO3A10CM on N-terminus; AA1 Apsp; AA6 Darg; AA8 Bpa4; AA10 azaGly-NH2
As to B24, the EC50 in experiment [1] and in experiment [2] was 440 nM throughout.

B25: BRU-3115 (peptide)
peptide: XRWXHXWXPX
modifications: DO3A10CM on N-terminus; AA1 Dnal2; AA4 Amfe4; AA6 Darg; AA8 Bpa4; AA10 azaGly-NH2
Take B25: the concentration for a half-maximal effect (EC50) in experiment [1] and in experiment [2] was 150 nM throughout.

B26: BRU-3054 (peptide)
peptide: XRWSHXWXPX
modifications: DO3A10CM on N-terminus; AA1 Dtyr; AA6 Darg; AA8 Bpa4; AA10 azaGly-NH2
B26: the EC50 in experiment [1] and in experiment [2] was 430 nM throughout.

B27: BRU-2960 (peptide)
peptide: XRWSXXWXPX
modifications: DO3A10CM on N-terminus; AA1 Dnal2; AA5 Fur3ala; AA6 Darg; AA8 Bpa4; AA10 azaGly-NH2
For the molecule B27, the EC50 in experiment [1] and in experiment [2] was 400 nM each time.

B28: BRU-2439 (peptide)
peptide: XHWSHXWYPX
HELM: PEPTIDE1{[Sar].H.W.S.H.[dR].W.Y.P.[O=C(NN[*:1])[*:2]].[am]}$$$$V2.0; N-terminus assumed
SMILES: CNCC(=O)N[C@@H](Cc1c[nH]cn1)C(=O)N[C@@H](Cc1c[nH]c2ccccc12)C(=O)N[C@@H](CO)C(=O)N[C@@H](Cc1c[nH]cn1)C(=O)N[C@H](CCCNC(=N)N)C(=O)N[C@@H](Cc1c[nH]c2ccccc12)C(=O)N[C@@H](Cc1ccc(O)cc1)C(=O)N1CCC[C@H]1C(=O)NNC(N)=O
Turning to B28, the EC50 in experiment [1] and in experiment [2] was 250 nM each time.

B29: BRU-3020 (peptide)
peptide: XRWSHXWXP
modifications: DO3A10CM on N-terminus; AA1 Dnal2; AA6 Darg; AA8 Bpa4; AA10 Mo2abn
Regarding B29, the EC50 in experiment [1] and in experiment [2] was 450 nM in each case.

B30: BRU-2734 (peptide)
peptide: XHWSHXWXPX
modifications: AA1 Mephe; AA6 Darg; AA8 Bpa4; AA10 azaGly-NH2
As for B30, the EC50 in experiment [1] and in experiment [2] was 150 nM throughout.

B31: BRU-3063 (peptide)
peptide: XRWSHXWXPX
modifications: DO3A10CM on N-terminus; AA1 Datdc2; AA6 Darg; AA8 Bpa4; AA10 azaGly-NH2
Regarding B31, the EC50 in experiment [1] and in experiment [2] was 470 nM in each case.

B32: BRU-2953 (peptide)
peptide: DO3A10CM-[d2Nal]RWSH[dR]W[Bpa4][Ppt4][azaGly]-NH2
modifications: reading uncertain
In the case of B32, in experiment [1], the EC50 worked out at 650 nM and the factor of reduced binding against BRU-2813 worked out at 2 fold. The molecule further displayed an EC50 in experiment [2] of 830 nM.

B33: BRU-3095 (peptide)
peptide: DO3A10CM-[Damfe4][Damfe4]WSH[dR]W[Bpa]P[azaGly]-NH2
modifications: reading uncertain
Turning to B33, the EC50 in experiment [1] and in experiment [2] was 290 nM in each case.

B34: BRU-2441 (peptide)
peptide: XHWSHXWXPX
modifications: AA1 Sar; AA6 Darg; AA8 Bpa4; AA10 azaGly-NH2
In experiment [1], B34 displayed an EC50 of 140 nM and a times more potent than BRU-2439 of 2 times. Moreover, in experiment [2], the EC50 worked out at 140 nM.

B35: BRU-2984 (peptide)
peptide: XRWSHXWXP
modifications: DO3A10CM on N-terminus; AA1 Dnal2; AA6 Darg; AA8 Bpa4; AA10 Gua (guanidine)
On to B35, for which the EC50 in experiment [1] and in experiment [2] was 400 nM in each case.

B36: BRU-3094 (peptide)
peptide: XRWSHXWXPX
modifications: DO3A10CM on N-terminus; AA1 Ampha4; AA6 Darg; AA8 Bpa4; AA10 azaGly-NH2
Consider B36, for which the EC50 in experiment [1] and in experiment [2] was 350 nM throughout.

B37: BRU-3007 (peptide)
peptide: XRWSHXWXP
modifications: AA1 Sar; AA6 Darg; AA8 Bpa4; AA10 Da15o3pt
For the molecule B37, the EC50 in experiment [1] and in experiment [2] was 220 nM throughout.

B38: BRU-3053 (peptide)
peptide: GXRWSHXWXPX
modifications: DO3A10CM-Gly (linker) on N-terminus; AA1 Tpi; AA6 Darg; AA8 Bpa4; AA10 azaGly-NH2
For the molecule B38, the EC50 in experiment [1] and in experiment [2] was 320 nM in each case.

B39: BRU-2983 (peptide)
peptide: XRWSHXWXP
modifications: DO3A10CM on N-terminus; AA1 Dnal2; AA6 Darg; AA8 Bpa4; AA10 Pheol
Regarding B39, the EC50 in experiment [1] and in experiment [2] was 450 nM each time.

B40: BRU-2952 (peptide)
peptide: DO3A10CM-[d2Nal]RWSH[dR]W[Bpa4][Hypt4][azaGly]-NH2
modifications: reading uncertain
For B40, the EC50 in experiment [1] and in experiment [2] was 280 nM each time.

B41: BRU-2796 (peptide)
peptide: DO3A10CM-G[Mogly]HWSH[dR]W[Bpa]P[azaGly]-NH2
modifications: reading uncertain
Regarding B41, the EC50 in experiment [1] and in experiment [2] was 340 nM each time.

The values are drawn from patent US20120045393A1 (priority 2009, published 2012).
